Test results as given in patent US20140087995A1 (published 2014).
Numbered stars: 1 amine (or outer) side, 2 acyl side, 3 side chain; on linkers, the order of the positions; unused ones are H or OH. Bridge positions count the residues as written; N and C are the ends. Side chains are listed from the residue outwards. Ends that are not written are not given here. * marks the point of attachment. C20 diacid = O=C(O)CCCCCCCCCCCCCCCCCCC(=O)*; γGlu = O=C(O)[C@H](CCC(=O)[*:2])N[*:1]

T1: human calcitonin receptor (human, UniProt P30988 25-474)
T1 construct: whole, on cells; Used as membranes prepared from the transfected cells (Assay VII); also called hCTR; hCT
T1 sequence (looked up): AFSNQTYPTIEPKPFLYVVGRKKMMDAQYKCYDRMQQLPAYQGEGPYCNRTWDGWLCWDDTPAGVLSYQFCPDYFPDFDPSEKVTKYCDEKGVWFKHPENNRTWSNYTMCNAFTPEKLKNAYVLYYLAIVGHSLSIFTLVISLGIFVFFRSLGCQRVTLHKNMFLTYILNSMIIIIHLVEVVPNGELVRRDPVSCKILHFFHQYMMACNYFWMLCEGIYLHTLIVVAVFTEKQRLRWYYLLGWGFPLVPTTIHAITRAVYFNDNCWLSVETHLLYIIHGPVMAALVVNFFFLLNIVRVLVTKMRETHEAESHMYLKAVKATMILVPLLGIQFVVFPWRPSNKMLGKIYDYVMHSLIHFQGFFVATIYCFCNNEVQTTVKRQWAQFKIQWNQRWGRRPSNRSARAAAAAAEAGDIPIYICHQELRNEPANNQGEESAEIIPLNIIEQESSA

T2: rat amylin receptor (rat calcitonin receptor + rat RAMP 3) (rat, UniProt P32214 25-516; Q9JJ73 23-147)
T2 construct: whole, on cells; Used as membranes prepared from the transfected cells; also called rAmylin-R; rat amylin 3(a) receptor
T2 sequence (looked up) 1: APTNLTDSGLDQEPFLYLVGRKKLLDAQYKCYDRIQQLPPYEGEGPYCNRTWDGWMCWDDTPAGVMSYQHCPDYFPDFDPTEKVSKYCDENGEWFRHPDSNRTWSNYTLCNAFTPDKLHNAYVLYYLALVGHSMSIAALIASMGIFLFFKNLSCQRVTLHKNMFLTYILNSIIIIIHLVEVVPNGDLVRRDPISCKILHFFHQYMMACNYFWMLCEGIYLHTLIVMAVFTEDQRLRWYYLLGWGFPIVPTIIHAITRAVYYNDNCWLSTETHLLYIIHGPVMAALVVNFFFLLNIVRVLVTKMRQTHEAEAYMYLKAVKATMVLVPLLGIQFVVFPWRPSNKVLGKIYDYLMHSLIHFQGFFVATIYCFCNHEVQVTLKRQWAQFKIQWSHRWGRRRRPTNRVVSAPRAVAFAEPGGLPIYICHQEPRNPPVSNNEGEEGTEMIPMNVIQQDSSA
T2 sequence (looked up) 2: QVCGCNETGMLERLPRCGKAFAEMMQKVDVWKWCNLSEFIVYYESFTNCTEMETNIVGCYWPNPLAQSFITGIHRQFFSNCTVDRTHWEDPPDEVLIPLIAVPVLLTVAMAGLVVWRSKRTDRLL

T3: rat calcitonin receptor (rat, UniProt P32214 25-516)
T3 construct: whole, on cells; Used as membranes prepared from the transfected cells; also called rCTR; rat calcitonin (a) receptor
T3 sequence (looked up): T2 sequence (looked up) 1

B1: N^ε1-[(4S)-4-carboxy-4-[[(4S)-4-carboxy-4-(19-carboxynonadecanoylamino)butanoyl]amino]butanoyl]-[Asp14,Arg17,Pro21,Pro27,Asp35]-h-amylin (peptide)
peptide: K([γGlu-γGlu-C20 diacid])CNTATCATQRLADFLRHSSPNFGAIPSSTNVGSDTY-NH2
modifications: disulfide 2-7; N-terminus assumed
SMILES: CC[C@H](C)[C@H](NC(=O)[C@H](C)NC(=O)CNC(=O)[C@H](Cc1ccccc1)NC(=O)[C@H](CC(N)=O)NC(=O)[C@@H]1CCCN1C(=O)[C@H](CO)NC(=O)[C@H](CO)NC(=O)[C@H](Cc1c[nH]cn1)NC(=O)[C@H](CCCNC(=N)N)NC(=O)[C@H](CC(C)C)NC(=O)[C@H](Cc1ccccc1)NC(=O)[C@H](CC(=O)O)NC(=O)[C@H](C)NC(=O)[C@H](CC(C)C)NC(=O)[C@H](CCCNC(=N)N)NC(=O)[C@H](CCC(N)=O)NC(=O)[C@@H](NC(=O)[C@H](C)NC(=O)[C@@H]1CSSC[C@H](NC(=O)[C@@H](N)CCCCNC(=O)CC[C@H](NC(=O)CC[C@H](NC(=O)CCCCCCCCCCCCCCCCCCC(=O)O)C(=O)O)C(=O)O)C(=O)N[C@@H](CC(N)=O)C(=O)N[C@@H]([C@@H](C)O)C(=O)N[C@@H](C)C(=O)N[C@@H]([C@@H](C)O)C(=O)N1)[C@@H](C)O)C(=O)N1CCC[C@H]1C(=O)N[C@@H](CO)C(=O)N[C@@H](CO)C(=O)N[C@H](C(=O)N[C@@H](CC(N)=O)C(=O)N[C@H](C(=O)NCC(=O)N[C@@H](CO)C(=O)N[C@@H](CC(=O)O)C(=O)N[C@H](C(=O)N[C@@H](Cc1ccc(O)cc1)C(N)=O)[C@@H](C)O)C(C)C)[C@@H](C)O
notes: Derivative of human amylin; also called compound 2
B2: N^ε1-[(4S)--4-carboxy-4-(19-carboxynonadecanoylamino)butanoyl]-[Glu14,Arg17,Pro21,Pro27,Pro37]-h-amylin (peptide)
peptide: K([γGlu-C20 diacid])CNTATCATQRLAEFLRHSSPNFGAIPSSTNVGSNTP-NH2
modifications: disulfide 2-7; N-terminus assumed
SMILES: CC[C@H](C)[C@H](NC(=O)[C@H](C)NC(=O)CNC(=O)[C@H](Cc1ccccc1)NC(=O)[C@H](CC(N)=O)NC(=O)[C@@H]1CCCN1C(=O)[C@H](CO)NC(=O)[C@H](CO)NC(=O)[C@H](Cc1c[nH]cn1)NC(=O)[C@H](CCCNC(=N)N)NC(=O)[C@H](CC(C)C)NC(=O)[C@H](Cc1ccccc1)NC(=O)[C@H](CCC(=O)O)NC(=O)[C@H](C)NC(=O)[C@H](CC(C)C)NC(=O)[C@H](CCCNC(=N)N)NC(=O)[C@H](CCC(N)=O)NC(=O)[C@@H](NC(=O)[C@H](C)NC(=O)[C@@H]1CSSC[C@H](NC(=O)[C@@H](N)CCCCNC(=O)CC[C@H](NC(=O)CCCCCCCCCCCCCCCCCCC(=O)O)C(=O)O)C(=O)N[C@@H](CC(N)=O)C(=O)N[C@@H]([C@@H](C)O)C(=O)N[C@@H](C)C(=O)N[C@@H]([C@@H](C)O)C(=O)N1)[C@@H](C)O)C(=O)N1CCC[C@H]1C(=O)N[C@@H](CO)C(=O)N[C@@H](CO)C(=O)N[C@H](C(=O)N[C@@H](CC(N)=O)C(=O)N[C@H](C(=O)NCC(=O)N[C@@H](CO)C(=O)N[C@@H](CC(N)=O)C(=O)N[C@H](C(=O)N1CCC[C@H]1C(N)=O)[C@@H](C)O)C(C)C)[C@@H](C)O
notes: Derivative of human amylin; also called compound 12
B3: N^ε1-[(4S)-4-carboxy-4-[[(4S)-4-carboxy-4-(19-carboxynonadecanoylamino)butanoyl]amino]butanoyl]-[Asp14,Arg17,Pro22,Pro26,Asp35]-h-amylin (peptide)
peptide: K([γGlu-γGlu-C20 diacid])CNTATCATQRLADFLRHSSNPFGAPLSSTNVGSDTY-NH2
modifications: disulfide 2-7; N-terminus assumed
SMILES: CC(C)C[C@H](NC(=O)[C@H](CCCNC(=N)N)NC(=O)[C@H](CCC(N)=O)NC(=O)[C@@H](NC(=O)[C@H](C)NC(=O)[C@@H]1CSSC[C@H](NC(=O)[C@@H](N)CCCCNC(=O)CC[C@H](NC(=O)CC[C@H](NC(=O)CCCCCCCCCCCCCCCCCCC(=O)O)C(=O)O)C(=O)O)C(=O)N[C@@H](CC(N)=O)C(=O)N[C@@H]([C@@H](C)O)C(=O)N[C@@H](C)C(=O)N[C@@H]([C@@H](C)O)C(=O)N1)[C@@H](C)O)C(=O)N[C@@H](C)C(=O)N[C@@H](CC(=O)O)C(=O)N[C@@H](Cc1ccccc1)C(=O)N[C@@H](CC(C)C)C(=O)N[C@@H](CCCNC(=N)N)C(=O)N[C@@H](Cc1c[nH]cn1)C(=O)N[C@@H](CO)C(=O)N[C@@H](CO)C(=O)N[C@@H](CC(N)=O)C(=O)N1CCC[C@H]1C(=O)N[C@@H](Cc1ccccc1)C(=O)NCC(=O)N[C@@H](C)C(=O)N1CCC[C@H]1C(=O)N[C@@H](CC(C)C)C(=O)N[C@@H](CO)C(=O)N[C@@H](CO)C(=O)N[C@H](C(=O)N[C@@H](CC(N)=O)C(=O)N[C@H](C(=O)NCC(=O)N[C@@H](CO)C(=O)N[C@@H](CC(=O)O)C(=O)N[C@H](C(=O)N[C@@H](Cc1ccc(O)cc1)C(N)=O)[C@@H](C)O)C(C)C)[C@@H](C)O
notes: Derivative of human amylin; also called compound 3
B4: N{Alpha-1}-[(4S)-4-carboxy-4-(19-carboxynonadecanoylamino)butanoyl]-[Glu14,Arg17,Pro21,Pro27,Lys34]-h-amylin (peptide)
peptide: {C20 diacid-γGlu}-KCNTATCATQRLAEFLRHSSPNFGAIPSSTNVGKNTY-NH2
modifications: disulfide 2-7
SMILES: CC[C@H](C)[C@H](NC(=O)[C@H](C)NC(=O)CNC(=O)[C@H](Cc1ccccc1)NC(=O)[C@H](CC(N)=O)NC(=O)[C@@H]1CCCN1C(=O)[C@H](CO)NC(=O)[C@H](CO)NC(=O)[C@H](Cc1c[nH]cn1)NC(=O)[C@H](CCCNC(=N)N)NC(=O)[C@H](CC(C)C)NC(=O)[C@H](Cc1ccccc1)NC(=O)[C@H](CCC(=O)O)NC(=O)[C@H](C)NC(=O)[C@H](CC(C)C)NC(=O)[C@H](CCCNC(=N)N)NC(=O)[C@H](CCC(N)=O)NC(=O)[C@@H](NC(=O)[C@H](C)NC(=O)[C@@H]1CSSC[C@H](NC(=O)[C@H](CCCCN)NC(=O)CC[C@H](NC(=O)CCCCCCCCCCCCCCCCCCC(=O)O)C(=O)O)C(=O)N[C@@H](CC(N)=O)C(=O)N[C@@H]([C@@H](C)O)C(=O)N[C@@H](C)C(=O)N[C@@H]([C@@H](C)O)C(=O)N1)[C@@H](C)O)C(=O)N1CCC[C@H]1C(=O)N[C@@H](CO)C(=O)N[C@@H](CO)C(=O)N[C@H](C(=O)N[C@@H](CC(N)=O)C(=O)N[C@H](C(=O)NCC(=O)N[C@@H](CCCCN)C(=O)N[C@@H](CC(N)=O)C(=O)N[C@H](C(=O)N[C@@H](Cc1ccc(O)cc1)C(N)=O)[C@@H](C)O)C(C)C)[C@@H](C)O
notes: Derivative of human amylin; also called compound 36

Target: T1, human calcitonin receptor
Test: ratio IC50 human calcitonin receptor / IC50 human amylin receptor (Assays VII and V)
In short: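 Scintillation proximity competition binding on cell membranes at 35 ng/μL with SPA beads, in 50 mM Hepes pH 7.4, 1 mM CaCl2, 5 mM MgCl₂, 0.1% OA, 0.02% Tween20. Incubated 120 min at 25° C with shaking. IC₅₀ from one-site competition fit.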

Going from B1 to B2, the “Ratio hCT/hAmylin binding” value falls from 47.5 to 2.5.

First: B3
Second: B4
The “Ratio hCT/hAmylin binding” value of the first is higher: 17.3 for the first, 15.7 for the second.

Target: T2, rat amylin receptor (rat calcitonin …)
Test: SPA competition with 125I-rat amylin, membranes of BHK cells with rat calcitonin receptor + rat RAMP3 (Assay VI)

Going from B1 to B2, the IC50 rises from 0.295 nM to 0.544 nM (1.8-fold).

Compared with B3, B4 is 1.9-fold higher in IC50: 1 nM for the first, 1.86 nM for the second. The first is the more potent here.

Target: T3, rat calcitonin receptor
Test: ratio IC50 rat calcitonin receptor / IC50 rat amylin receptor (Assays VIII and VI)

Going from B1 to B2, the “Ratio rCT/rAmylin binding” value falls from 366 to 5.

Going from B3 to B4, the “Ratio rCT/rAmylin binding” value rises from 16.7 to 32.4.

Target: T3, rat calcitonin receptor
Test: SPA competition with 125I-calcitonin, membranes of BHK cells with rat calcitonin receptor (Assay VIII)

Compared with B1, B2 is 40-fold lower in IC50: 108 nM for the first, 2.71 nM for the second. The second is the more potent here.

Compared with B3, B4 is 3.6-fold higher in IC50: 16.7 nM for the first, 60.1 nM for the second.
